Source: paper PMC2679143 (PLoS ONE, 2009)

B1: Cif from Photorhabdus luminescens (natural protein)
chain: SKFKKNSINTIKLIDDIIALHNDPKGNKLLWNDNWQDKIINRDLANIFEKIDESVSELGGLEMYQEMVGVNPYDPTEPVCGLSAQNIFKLMTEGEHAVDPVEMAQTGKIDGNEFAESVDQLSSAKNYVALVNDRRLGHMFLIDIPSNDQETVGYIYQSDLGQGALPPLKIADWLNSRGKDAVSLNKLKKLLSREFNLLSDDEKRALISETLDIHKDVSNVELDRIKRDRGVDIYLTEYDVNNFYENIETLKSKLSNYDKKLSKPK
notes: also called CifPl; source: E. coli BL21(DE3) or B834(DE3), pET28a, purified (Ni2+-IMAC, Superdex 75)
B2: Cif from Photorhabdus asymbiotica (natural protein)
chain: MMREYSKEDDCVKEKTNLAESENVEADNYLEMDCLNYLAKLNGMPERKDHSLNSTKLIDDIIKLHNDRKGNKLLWNDNWQDKIIDRDLESIFKKIDEMVSEFGGIEIYKDIVGENPYDPTEPVCGYSAQNIFKLMTEGEHAVDPVKMAQTGKINGNEFAEKLEQLNSSNNYVALINDHRLGHMFLVDIPSTNREKVGYIYQSDLGDGALPALKIADWLKSRGKESINVNKLKKFLSNEFTMLSESEQKELIAEIFDINKDIANVKLGKIKKDKAVDVYLREYDLNDFISNIEKLKTKLV
notes: also called CifPa; P. asymbiotica Cif; source: E. coli BL21(DE3) or B834(DE3), pET28a, purified (Ni2+-IMAC, Superdex 75)

How the values were obtained:
[1] = molecular target: cycle inhibiting factor (Cif) from enteropathogenic Escherichia coli (EPEC) (enteropathogenic Escherichia coli (EPEC)); assay: SEC
SEC = molecular target: the molecule itself; assay: SEC

| Molecule | stoichiometry N [1] | stoichiometry N (SEC) |
| --- | --- | --- |
| cycle inhibiting factor (Cif) from enteropathogenic Escherichia coli (EPEC) (natural protein) | 2 | – |
| B1 | – | 2 |
| B2 | – | 2 |
